Results as given in PMC6233088.

Target: RGA5_S (RGA5 982-1116), small C-terminal fragment of RGA5 carrying the HMA domain (rice) (UniProt F7J0N2)
Experiment: SEC

Sequence of UniProt F7J0N2 (F7J0N2 982-1116): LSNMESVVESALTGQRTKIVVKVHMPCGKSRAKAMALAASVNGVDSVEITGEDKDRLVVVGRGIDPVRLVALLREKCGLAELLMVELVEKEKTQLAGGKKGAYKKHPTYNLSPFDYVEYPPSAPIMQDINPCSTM

## dSP-AVR1-CO39 (AVR1-CO39 with its signal peptide deleted), wild type, recombinant (natural protein)
  stoichiometry N: 1
